Eight molecules from patent publication US7387779B2, “Anti-angiogenic proteins and fragments and methods of use thereof” (Beth Israel Deaconess Medical Center, priority 1998, dated 2008) can be followed below.

The subject of the experiment is new blood vessels in Matrigel plugs. Put plainly: In vivo Matrigel plug assay. Particulars: for inhibition of neovascularization / average number of vessels per high power field: Tumstatin-N53 5 μg/ml, T1 and T3 peptide 10 μg/ml; for average number of vessels per high power field: control 8.81±0.35; for reduction of new blood vessels: 6 days, 5 μg/ml, relative to PBS control; for number of blood vessels per plug: 2 or 20 μg/ml insoluble protein, 50 ng/ml VEGF, vs PBS; for number of blood vessels per plug / reduction in the number of blood vessels: 14 days. Also on record: species or system C57/BL6 mice. The method, then: The matrigel assay was also conducted in vivo in C57/BL6 mice. Matrigel was thawed overnight at 4° C. It was then mixed with 20 U/ml of heparin (Pierce Chemical Co., Rockford, Ill., USA), 150 ng/ml of bFGF (R&D Systems, Minneapolis, Minn., USA), and either 1 μg/ml of Arresten or 10 μg/ml of endostatin. The matrigel mixture was injected subcutaneously using a 21 g needle. Control groups received the same mixture, but with no angiogenic inhibitor. After 14 days, mice were sacrificed and the matrigel plugs removed. The matrigel plugs were fixed in 4% paraformaldehyde in PBS for 4 hours at room temperature, then switched to PBS for 24 hours. The plugs were embedded in paraffin, sectioned, and H&E stained. Sections were examined by light microscopy and the number of blood vessels from 10 high-power fields were counted and averaged.
To evaluate the in vivo effect of Tumstatin on the formation of new capillaries, a Matrigel plug assay was performed (Passaniti, A. et al., 1992, Lab. Invest. 67:519-29). Five- to six-week-old male C57/BL6 mice (Jackson Laboratories, Bar Harbor, Me., USA) were obtained. Matrigel (Collaborative Biomedical Prods.) was thawed overnight at 4° C. Before injection into C57/BL6 mice, it was mixed with 20 U/ml of heparin (Pierce Chemical Co., Rockford, Ill., USA), 150 ng/ml of bFGF (R&D Sys., Minneapolis, Minn., USA), and […] of Tumstatin. Control groups received no angiogenic inhibitor. The Matrigel mixture was injected sub-cutaneously using a 21 gauge needle. After 14 days, mice were sacrificed and the Matrigel plugs were removed. Matrigel plugs were fixed in 4% para-formaldehyde (in PBS) for 4 hours at room temperature, then switched to PBS for 24 hours. The plugs were embedded in paraffin, sectioned, and H & E stained. Sections were examined by light microscopy and the number of blood vessels from 10 high power fields were counted and averaged. All sections were coded and observed by a pathologist who was unaware of the study protocols.
Anti-angiogenic activity was measured by the in vivo Matrigel plug assay, in which 0.5 ml of Matrigel containing either 2 μg/ml or 20 μg/ml insoluble protein, 50 ng/ml VEGF, and 20 U/ml heparin was injected simultaneously into both flanks of C57/1BL6 mice. The plugs remained in the mice for 14 days, when the mice were sacrificed and the plugs resected and fixed. The plugs were embedded, sectioned and H&E stained. Samples were blinded and the blood vessels quantitated. No difference in the number of blood vessels was found between the two concentrations of protein, so all six counts were averaged and plotted.
To evaluate the in vivo effect of Tumstatin-44-131 of the formation of new capillaries, a Matrigel plug assay was performed. After 6 days of treatment, the number of new blood formed was reduced 91% upon treatment with 5 μg/ml E. Coli-expressed Tumstatin-44-131, relative to the PBS-treated control. Tum-1, which lacks the N-terminal 53 amino acids of full-length Tumstatin, was also tested, and reduced neovascularization by 95%. The average (over 3-4 Matrigel plugs) number of vessels was 0.47.+−.0.16 for Tum-1-treated plugs, 0.80.+−.0.16 for Tumstatin-44-131-treated plugs, and 8.81.+−.0.35 for PBS-treated controls.
To evaluate the in vivo effect of T3 on the formation of new capillaries, a matrigel plug assay was performed with Tumstatin-N53 (5 μg/ml), T1 and T3 peptide (10 μg/ml). The number of blood vessels from 4-7 high power fields were counted and averaged. The average number of vessels per high power field after treatment with Tumstatin-N53 was 0.47±0.16, 7.41±0.54 for T1 peptide, and 0.33±0.16 for T3 peptide. Control treatment produced 8.81±0.35 vessels per field, on average.

For the molecule GLKGKRGDSGSPATWTTRGF [T1], the inhibition of neovascularization result is given as “no significant reduction” and the “average number of vessels per high power field” value was 7.41±0.54.
In the same order, the values of LQRFTTMPFLFCNVNDVCNF [T3] are 96% and 0.33±0.16.

B1: Tum-1: residues 54 to 244 of Tumstatin, lacking the N-terminal 53 amino acids (SEQ ID NO:22) (protein)
chain: QRAHGQDLGTLGSCLQRFTTMPFLFCNVNDVCNFASRNDYSYWLSTPALMPMNMAPITGRALEPYISRCTVCEGPAIAIAVHSQTTDIPPCPHGWISLWKGFSFIMFTSAGSEGTGQALASPGSCLEEFRASPFLECHGRGTCNYYSNSYSFWLASLNPERMFRKPIPSTVKAGELEKIISRCQVCMKKRH
modifications: Tum-1 (Tumstatin N-53) (amino acids 54-244 of SEQ ID NO10)
As to B1, the “reduction of new blood vessels” value was 95%, the inhibition of neovascularization is 95% and the “average number of vessels per high power field” value is reported as 0.47±0.16.

B2: Can-1: N-terminal 114 amino acids of full-length Canstatin (protein, listed as Homo sapiens)
chain: VSIGYLLVKHSQTDQEPMCPVGMNKLWSGYSLLYFEGQEKAHNQDLGLAGSCLARFSTMPFLYCNPGDVCYYASRNDKSYWLSTTAPLPMMPVAEDEIKPYISRCSVCEAPAIA
On to B2, for which the “number of blood vessels per plug” value is given as “significantly fewer blood vessels”.

B3: Canstatin: NC1 domain of the α2 chain of Type IV collagen (SEQ ID NO:6) (protein, listed as Homo sapiens)
chain: VSIGYLLVKHSQTDQEPMCPVGMNKLWSGYSLLYFEGQEKAHNQDLGLAGSCLARFSTMPFLYCNPGDVCYYASRNDKSYWLSTTAPLPMMPVAEDEIKPYISRCSVCEAPAIAIAVHSQDVSIPHCPAGWRSLWIGYSFLMHTAAGDEGGGQSLVSPGSCLEDFRATPFIECNGGRGTCHYYANKYSFWLTTIPEQSFQGSPSADTLKAGLIRTHISRCQVCMKNL
In the case of B3, the “number of blood vessels per plug” value is on record as “significantly fewer blood vessels”.

B4: Tumstatin: NC1 domain of the α3 chain of type IV collagen, residues 1-244 (SEQ ID NO:10) (protein, listed as Homo sapiens)
chain: GLKGKRGDSGSPATWTTRGFVFTRHSQTTAIPSCPEGTVPLYSGFSFLFVQGNQRAHGQDLGTLGSCLQRFTTMPFLFCNVNDVCNFASRNDYSYWLSTPALMPMNMAPITGRALEPYISRCTVCEGPAIAIAVHSQTTDIPPCPHGWISLWKGFSFIMFTSAGSEGTGQALASPGSCLEEFRASPFLECHGRGTCNYYSNSYSFWLASLNPERMFRKPIPSTVKAGELEKIISRCQVCMKKRH
B4: where the note is “1 mg/ml Tumstatin, control 7.50±2.17”, the “number of vessels per high power field” value worked out at 2.25±1.32. The “reduction in the number of blood vessels” value (bFGF and heparin, 1 mg/ml E. Coli-produced Tumstatin) is 67%.

B5: endostatin: tumor associated angiogenesis inhibitor used as comparator (protein, UniProt P39060 1572-1754, looked up)
Endostatin: HSHRDFQPVLHLVALNSPLSGGMRGIRGADFQCFQQARAVGLAGTFRAFLSSRLQDLYSIVRRADRAAVPIVNLKDELLFPSWEALFSGSEGPLKPGARIFSFDGKDVLRHPTWPQKSVWHGSDPNGRRLTESYCETWRTEAPSATGQASSLLGGRLLGQSAASCHHAYIVLCIENSFMTASK
modifications: Endostatin
Turning to B5, the “reduction in the number of blood vessels” value (bFGF, 1 μg/ml Arresten, 10 μg/ml endostatin) was found to be 50%.

B6: Tumstatin-44-131: residues 44 to 131 of full-length Tumstatin (SEQ ID NO:33) (protein)
chain: FSFLFVQGNQRAHGQDLGTLGSCLQRFTTMPFLFCNVNDVCNFASRNDYSYWLSTPALMPMNMAPITGRALEPYISRCTVCEGPAIAI
modifications: Tumstatin-45-132 (amino acids 45-132 of SEQ ID NO10)
As for B6, the “reduction of new blood vessels” value is given as 91%.
